Reference: publication PMC10148134

Legend:
[1] = target: toad B. maxima serum albumin (Bm-SA) (Bombina maxima) (UniProt Q3T478); assay: BLI; 10 μg/mL proteins (OVA, Bm-SA) coupled on AR2G or SA sensors; various concentrations of βγ-CAT as analyte, PBS as buffer; association 300 s, dissociation 180 s; Octet R2; 1:1 model
[2] = target: ovalbumin (OVA) (UniProt P01012); assay: as above
Sequence of UniProt P01012 (P01012 whole entry): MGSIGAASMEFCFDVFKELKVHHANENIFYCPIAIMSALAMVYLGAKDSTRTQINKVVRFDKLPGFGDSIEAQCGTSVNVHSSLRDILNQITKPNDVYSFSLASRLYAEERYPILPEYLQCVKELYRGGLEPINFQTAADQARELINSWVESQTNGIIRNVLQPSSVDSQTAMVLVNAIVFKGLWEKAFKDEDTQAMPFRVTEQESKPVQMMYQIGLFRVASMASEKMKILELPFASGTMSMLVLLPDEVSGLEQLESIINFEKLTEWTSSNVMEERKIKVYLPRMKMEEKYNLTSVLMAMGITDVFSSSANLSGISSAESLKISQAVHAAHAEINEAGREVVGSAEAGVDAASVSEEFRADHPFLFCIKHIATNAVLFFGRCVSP

Sequence of UniProt Q3T478 (Q3T478 23-607): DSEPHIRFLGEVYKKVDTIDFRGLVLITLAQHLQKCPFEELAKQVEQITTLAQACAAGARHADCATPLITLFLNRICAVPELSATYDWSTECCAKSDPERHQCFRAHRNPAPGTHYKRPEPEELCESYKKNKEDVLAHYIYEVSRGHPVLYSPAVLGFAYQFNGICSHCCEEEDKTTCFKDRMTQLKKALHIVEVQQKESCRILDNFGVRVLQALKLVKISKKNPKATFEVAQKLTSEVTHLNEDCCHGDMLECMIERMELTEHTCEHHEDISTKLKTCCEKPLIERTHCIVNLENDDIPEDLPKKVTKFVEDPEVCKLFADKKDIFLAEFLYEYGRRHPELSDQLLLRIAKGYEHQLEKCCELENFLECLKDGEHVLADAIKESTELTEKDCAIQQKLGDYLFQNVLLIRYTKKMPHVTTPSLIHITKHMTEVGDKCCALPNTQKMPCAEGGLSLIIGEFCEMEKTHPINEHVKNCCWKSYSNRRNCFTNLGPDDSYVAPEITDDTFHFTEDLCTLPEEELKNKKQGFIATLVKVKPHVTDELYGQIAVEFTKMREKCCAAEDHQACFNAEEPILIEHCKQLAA

βγ-CAT, pore-forming protein (PFP) and trefoil factor complex of BmALP1 and BmTFF3 from toad Bombina maxima
Kd [1]: 24.7 nM
Kd [2]: 23.3 nM
